US20140087995A1 (published 2014)
Values belong to the binder of their own block, whether it stands above or below them. Numbered stars: 1 amine (or outer) side, 2 acyl side, 3 side chain; on linkers, the order of the positions; unused ones are H or OH. Bridge positions count the residues as written; N and C are the ends. Side chains are listed from the residue outwards. Ends that are not written are not given here. * marks the point of attachment. C20 diacid = O=C(O)CCCCCCCCCCCCCCCCCCC(=O)*; γGlu = O=C(O)[C@H](CCC(=O)[*:2])N[*:1]

Molecular target: T1, human amylin receptor (amylin 3(a) receptor: human calcitonin receptor with RAMP-3) (human, UniProt P30988 25-474; O60896 24-148)
T1 construct: whole, on cells; also called hAmylin-R; hAmylinR
T1 sequence (looked up) 1: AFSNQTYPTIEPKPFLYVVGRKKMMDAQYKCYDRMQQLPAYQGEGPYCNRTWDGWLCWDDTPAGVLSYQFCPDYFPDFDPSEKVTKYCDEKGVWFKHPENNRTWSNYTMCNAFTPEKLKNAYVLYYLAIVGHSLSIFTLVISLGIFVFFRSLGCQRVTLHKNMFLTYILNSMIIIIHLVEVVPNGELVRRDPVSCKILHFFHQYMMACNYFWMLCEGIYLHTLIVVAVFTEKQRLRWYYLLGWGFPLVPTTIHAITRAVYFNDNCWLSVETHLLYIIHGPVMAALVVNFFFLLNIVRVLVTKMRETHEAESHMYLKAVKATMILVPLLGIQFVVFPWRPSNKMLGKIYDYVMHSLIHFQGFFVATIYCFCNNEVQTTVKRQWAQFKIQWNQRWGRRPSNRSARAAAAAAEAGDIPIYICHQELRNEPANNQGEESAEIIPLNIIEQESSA
T1 sequence (looked up) 2: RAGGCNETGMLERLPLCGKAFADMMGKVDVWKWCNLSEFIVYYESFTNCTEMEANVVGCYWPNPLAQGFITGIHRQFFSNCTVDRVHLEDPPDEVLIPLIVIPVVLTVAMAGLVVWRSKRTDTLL
Assay: SPA displacement of 125I-rat amylin, hAmylin 3(a) receptor membranes
How it was run: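 SPA beads + BHK amylin 3(a)/CRE-luc membranes, 35 ng/μL final; buffer 50 mM Hepes pH 7.4, 1 mM CaCl2, 5 mM MgCl₂, 0.1% OA, 0.02% Tween20. 120 min, 25° C, shaken; scintillation count. IC₅₀ by one-site binding competition fit, taken as receptor affinity.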

IC50: 1.18 nM
B1: N^ε1-[(4S)-4-carboxy-4-[[(4S)-4-carboxy-4-(19-carboxynonadecanoylamino)butanoyl]amino]butanoyl]-[Asp14,Arg17,Pro21,Pro26,Asp35]-h-amylin (peptide)
peptide: K([γGlu-γGlu-C20 diacid])CNTATCATQRLADFLRHSSPNFGAPLSSTNVGSDTY-NH2
modifications: disulfide 2-7; N-terminus assumed
SMILES: CC(C)C[C@H](NC(=O)[C@H](CCCNC(=N)N)NC(=O)[C@H](CCC(N)=O)NC(=O)[C@@H](NC(=O)[C@H](C)NC(=O)[C@@H]1CSSC[C@H](NC(=O)[C@@H](N)CCCCNC(=O)CC[C@H](NC(=O)CC[C@H](NC(=O)CCCCCCCCCCCCCCCCCCC(=O)O)C(=O)O)C(=O)O)C(=O)N[C@@H](CC(N)=O)C(=O)N[C@@H]([C@@H](C)O)C(=O)N[C@@H](C)C(=O)N[C@@H]([C@@H](C)O)C(=O)N1)[C@@H](C)O)C(=O)N[C@@H](C)C(=O)N[C@@H](CC(=O)O)C(=O)N[C@@H](Cc1ccccc1)C(=O)N[C@@H](CC(C)C)C(=O)N[C@@H](CCCNC(=N)N)C(=O)N[C@@H](Cc1c[nH]cn1)C(=O)N[C@@H](CO)C(=O)N[C@@H](CO)C(=O)N1CCC[C@H]1C(=O)N[C@@H](CC(N)=O)C(=O)N[C@@H](Cc1ccccc1)C(=O)NCC(=O)N[C@@H](C)C(=O)N1CCC[C@H]1C(=O)N[C@@H](CC(C)C)C(=O)N[C@@H](CO)C(=O)N[C@@H](CO)C(=O)N[C@H](C(=O)N[C@@H](CC(N)=O)C(=O)N[C@H](C(=O)NCC(=O)N[C@@H](CO)C(=O)N[C@@H](CC(=O)O)C(=O)N[C@H](C(=O)N[C@@H](Cc1ccc(O)cc1)C(N)=O)[C@@H](C)O)C(C)C)[C@@H](C)O
notes: also called compound 1

IC50: 0.697 nM
B2: N^ε1-[(4S)-4-carboxy-4-[[(4S)-4-carboxy-4-(19-carboxynonadecanoylamino)butanoyl]amino]butanoyl]-[Asp14,Arg17,Pro21,Pro27,Arg35]-h-amylin (peptide)
peptide: K([γGlu-γGlu-C20 diacid])CNTATCATQRLADFLRHSSPNFGAIPSSTNVGSRTY-NH2
modifications: disulfide 2-7; N-terminus assumed
SMILES: CC[C@H](C)[C@H](NC(=O)[C@H](C)NC(=O)CNC(=O)[C@H](Cc1ccccc1)NC(=O)[C@H](CC(N)=O)NC(=O)[C@@H]1CCCN1C(=O)[C@H](CO)NC(=O)[C@H](CO)NC(=O)[C@H](Cc1c[nH]cn1)NC(=O)[C@H](CCCNC(=N)N)NC(=O)[C@H](CC(C)C)NC(=O)[C@H](Cc1ccccc1)NC(=O)[C@H](CC(=O)O)NC(=O)[C@H](C)NC(=O)[C@H](CC(C)C)NC(=O)[C@H](CCCNC(=N)N)NC(=O)[C@H](CCC(N)=O)NC(=O)[C@@H](NC(=O)[C@H](C)NC(=O)[C@@H]1CSSC[C@H](NC(=O)[C@@H](N)CCCCNC(=O)CC[C@H](NC(=O)CC[C@H](NC(=O)CCCCCCCCCCCCCCCCCCC(=O)O)C(=O)O)C(=O)O)C(=O)N[C@@H](CC(N)=O)C(=O)N[C@@H]([C@@H](C)O)C(=O)N[C@@H](C)C(=O)N[C@@H]([C@@H](C)O)C(=O)N1)[C@@H](C)O)C(=O)N1CCC[C@H]1C(=O)N[C@@H](CO)C(=O)N[C@@H](CO)C(=O)N[C@H](C(=O)N[C@@H](CC(N)=O)C(=O)N[C@H](C(=O)NCC(=O)N[C@@H](CO)C(=O)N[C@@H](CCCNC(=N)N)C(=O)N[C@H](C(=O)N[C@@H](Cc1ccc(O)cc1)C(N)=O)[C@@H](C)O)C(C)C)[C@@H](C)O
notes: also called 52; compound 52
